Article PMC6872946 (Growth factors (Chur, Switzerland), 2019)
Like-named read-outs stand apart in the source and are kept apart here.

Assays:
[1] = target: PDGF-C growth factor domain (human); assay: immunoblot after cleavage with matriptase
[2] = target: the molecule itself; assay: non-reducing SDS-PAGE and immunoblot
[3] = target: the molecule itself; assay: non-reducing SDS-PAGE and immunoblot; remark: listed apart in the source

PDGF-C growth factor domain (domain or fragment)
stoichiometry N [1]: 2

B1: truncated PDGF-C isoform with a C-terminal myc tag (t-PDGF-C-myc), in COS-1 cells (natural protein, human, UniProt Q9NRA1 164-345, looked up)
chain: MPQFTEAVSPSVLPPSALPLDLLNNAITAFSTLEDLIRYLEPERWQLDLEDLYRPTWQLLGKAFVFGRKSRVVDLNLLTEEVRLYSCTPRNFSVSIREELKRTDTIFWPGCLLVKRCGGNCACCLHNCNECQCVPSKVTKKYHEVLQLRPKTGVRGLHKSLTDVALEHHEECDCVCRGSTGG
stoichiometry N [2]: 2

B2: truncated PDGF-C isoform with a myc tag (t-PDGF-C/myc), stably expressed in BT-549 cells (natural protein, human, UniProt Q9NRA1 164-345, looked up)
chain: MPQFTEAVSPSVLPPSALPLDLLNNAITAFSTLEDLIRYLEPERWQLDLEDLYRPTWQLLGKAFVFGRKSRVVDLNLLTEEVRLYSCTPRNFSVSIREELKRTDTIFWPGCLLVKRCGGNCACCLHNCNECQCVPSKVTKKYHEVLQLRPKTGVRGLHKSLTDVALEHHEECDCVCRGSTGG
stoichiometry N [3]: 2
